Experiments:
[1] = molecular target: T1, eukaryotic initiation factor 4E (eIF4E) (UniProt P06730 1-217); test: fluorescence correlation spectroscopy
[2] = molecular target: T1, eukaryotic initiation factor 4E (eIF4E); test: fluorescence anisotropy decay

T1 sequence (P06730 whole entry): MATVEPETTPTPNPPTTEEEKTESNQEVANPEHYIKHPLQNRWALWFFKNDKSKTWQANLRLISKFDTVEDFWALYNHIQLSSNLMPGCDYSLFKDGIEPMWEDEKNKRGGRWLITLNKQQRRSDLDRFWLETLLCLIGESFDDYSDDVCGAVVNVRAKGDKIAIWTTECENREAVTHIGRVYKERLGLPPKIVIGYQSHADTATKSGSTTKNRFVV

binding result [1]	binding result [2]	Binder
	binds	4E-BP2 C14 (S14C/C35S/C73S), non-phosphorylated, labelled with Atto488 at position 14 (natural protein, UniProt Q13542 1-120, looked up, Atto488 maleimide on cysteine 14) MSSSAGSGHQPSQCRAIPTRTVAISDAAQLPHDYSTTPGGTLFSTTPGGTRIIYDRKFLLDRRNSPMAQTPPSHLPNIPGVTSPGTLIEDSKVEVNNLNNLNNHDRKHAVGDDAQFEMDI
binds		4E-BP2 C121 (C35S/C73S/C121ins), non-phosphorylated, labelled with Atto488 at position 121 (natural protein, UniProt Q13542 1-120, looked up, Atto488 maleimide on the inserted cysteine at position 121) MSSSAGSGHQPSQSRAIPTRTVAISDAAQLPHDYSTTPGGTLFSTTPGGTRIIYDRKFLLDRRNSPMAQTPPSHLPNIPGVTSPGTLIEDSKVEVNNLNNLNNHDRKHAVGDDAQFEMDIC

Second part, the binder before the results:

Binder	binding result [1]	binding result [2]
4E-BP2 C91 (C35S/C73S/S91C), non-phosphorylated, labelled with Atto488 at position 91 (natural protein, UniProt Q13542 1-120, looked up, Atto488 maleimide on cysteine 91) MSSSAGSGHQPSQSRAIPTRTVAISDAAQLPHDYSTTPGGTLFSTTPGGTRIIYDRKFLLDRRNSPMAQTPPSHLPNIPGVTSPGTLIEDCKVEVNNLNNLNNHDRKHAVGDDAQFEMDI	binds	
4E-BP2 C73 (C35S), non-phosphorylated, labelled with Atto488 at position 73 (natural protein, UniProt Q13542 1-120, looked up, Atto488 maleimide on cysteine 73) MSSSAGSGHQPSQSRAIPTRTVAISDAAQLPHDYSTTPGGTLFSTTPGGTRIIYDRKFLLDRRNSPMAQTPPCHLPNIPGVTSPGTLIEDSKVEVNNLNNLNNHDRKHAVGDDAQFEMDI	binds	
4E-BP2 C35 (C73S), non-phosphorylated, labelled with Atto488 at position 35 (natural protein, UniProt Q13542 1-120, looked up, Atto488 maleimide on cysteine 35) MSSSAGSGHQPSQSRAIPTRTVAISDAAQLPHDYCTTPGGTLFSTTPGGTRIIYDRKFLLDRRNSPMAQTPPSHLPNIPGVTSPGTLIEDSKVEVNNLNNLNNHDRKHAVGDDAQFEMDI		binds

— publication doi:10.1101/2022.01.14.476386 (bioRxiv, 2022)
